{"source": "patent US20250270319A1", "about": "(Alector, published 2025)", "binders": {"B1": {"name": "anti-CD33 antibody 6C7H5 (antibody, V domains shown)", "VH": "EVQLVESGGGLVQPGGSLRLSCAGSGFTFSNYCMNWVRQAPGKGLEWVAEIRLKSNNYVTNYAASVKGRFTISRDDSKNSVYLQMNSLKTEDTGVYYCTRDGYYVPFAYWGQGTLVTVSS", "VL": "QLVLTQSPSASASLGASVKLTCTLSSQHSTYTIEWYQQQPEKGPRYLMELKKDGSHSTGDGIPDRFSGSSSGAERYLTISSLQSEDEADYYCGVGDTIKEQFVYVFGGGTKLTVL", "notes": "Humanized 6C7; VH/VL only; also called parental humanized antibody"}, "B2": {"name": "anti-CD33 antibody 6C7H8 (antibody, IgG1, V domains shown)", "VH": "B1 VH with D101A", "VL": "B1 VL with D53E", "notes": "VH/VL only; also called 6C7H8 IgG1; parental antibody"}, "B3": {"name": "anti-CD33 antibody 6C7H11 (antibody, V domains shown)", "VH": "B1 VH with G24A, N31E, C33A, A49G, D101A", "VL": "B1 VL with D53G", "notes": "VH/VL only"}, "B4": {"name": "anti-CD33 antibody 6C7H13 (antibody, V domains shown)", "VH": "B1 VH with C33F, D101A", "VL": "B1 VL with D53E", "notes": "VH/VL only"}, "B5": {"name": "anti-CD33 antibody 6C7H22 (antibody, V domains shown)", "VH": "B1 VH with C33T, D101A", "VL": "B1 VL with D53E", "notes": "VH/VL only"}, "B6": {"name": "anti-CD33 antibody 6C7H27 (antibody, V domains shown)", "VH": "B1 VH with N31D, C33T, D101A", "VL": "B1 VL with D53E", "notes": "VH/VL only"}, "B7": {"name": "anti-CD33 antibody 6C7H54 (antibody, IgG1, V domains shown)", "VH": "B1 VH with C33E, D101A", "VL": "B1 VL with V3M, E41G, D53E, D96H", "notes": "VH/VL only; also called 6C7H54 IgG1; 6C754"}}, "key": {"[1]": {"biological_target": "T1, human CD33 on primary human dendritic cells (human, UniProt P20138 18-364)", "T1 sequence (P20138 18-364)": "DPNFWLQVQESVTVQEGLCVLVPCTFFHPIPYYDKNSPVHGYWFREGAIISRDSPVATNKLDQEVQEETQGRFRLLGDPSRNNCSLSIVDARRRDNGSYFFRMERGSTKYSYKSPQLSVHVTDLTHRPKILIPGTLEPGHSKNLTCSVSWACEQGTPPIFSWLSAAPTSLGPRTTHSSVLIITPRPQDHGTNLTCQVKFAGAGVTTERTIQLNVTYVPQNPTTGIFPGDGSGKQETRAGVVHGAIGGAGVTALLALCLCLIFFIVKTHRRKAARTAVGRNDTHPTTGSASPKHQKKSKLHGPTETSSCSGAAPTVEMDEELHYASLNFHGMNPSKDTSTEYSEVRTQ", "assay": "cell-based or functional assay"}, "[2]": {"biological_target": "T1, human CD33 on primary human dendritic …", "assay": "cell-based or functional assay", "remark": "listed apart in the source"}, "[3]": {"biological_target": "T1, human CD33 on primary human dendritic …", "assay": "cell-based or functional assay", "remark": "listed apart in the source"}, "[4]": {"biological_target": "T2, recombinant human CD33 protein (Sino Biologicals) (human, UniProt P20138 18-259)", "T2 construct": "Bought protein; also called recombinant CD33", "T2 sequence (P20138 18-259 limits assumed)": "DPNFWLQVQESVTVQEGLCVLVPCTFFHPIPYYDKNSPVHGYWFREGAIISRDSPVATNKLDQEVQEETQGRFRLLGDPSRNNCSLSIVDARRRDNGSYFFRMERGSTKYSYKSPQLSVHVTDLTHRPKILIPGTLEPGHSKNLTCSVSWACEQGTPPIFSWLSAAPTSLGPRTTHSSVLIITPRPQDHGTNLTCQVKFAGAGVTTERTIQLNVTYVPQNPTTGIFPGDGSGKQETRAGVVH", "assay": "ELISA, plate coated with recombinant CD33"}, "[5]": {"biological_target": "T3, recombinant cynomolgus CD33 protein (NovoProtein) (cynomolgus)", "T3 construct": "Bought protein; also called cyno CD33", "T3 sequence (chain, as listed by the source limits assumed)": "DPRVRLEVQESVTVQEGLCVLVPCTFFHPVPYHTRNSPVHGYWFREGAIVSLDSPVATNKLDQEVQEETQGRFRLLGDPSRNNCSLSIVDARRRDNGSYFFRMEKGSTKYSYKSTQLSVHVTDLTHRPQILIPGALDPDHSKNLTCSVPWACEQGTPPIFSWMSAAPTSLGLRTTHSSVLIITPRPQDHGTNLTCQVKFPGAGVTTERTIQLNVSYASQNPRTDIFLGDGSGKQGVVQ", "assay": "ELISA, plate coated with recombinant CD33"}, "[6]": {"biological_target": "T2, recombinant human CD33 protein (Sino …)", "assay": "BLI (ForteBio), antibody on anti-human Fc sensor, CD33 10 nM"}, "[7]": {"biological_target": "T1, human CD33 on primary human dendritic …", "assay": "cell-based or functional assay", "remark": "listed apart in the source"}, "[8]": {"biological_target": "T2, recombinant human CD33 protein (Sino …)", "assay": "ELISA on recombinant CD33, relative binding, antibody concentration not given"}, "[9]": {"biological_target": "T1, human CD33 on primary human dendritic …", "assay": "flow cytometry on primary human dendritic cells, antibody at 2 ug/mL, fluorescent anti-human IgG secondary", "description": "The 7 humanized anti-CD33 antibodies of 6C7 were evaluated for binding to primary dendritic cells by flow cytometry, and binding was compared to that of an anti-CD33 6C7 chimeric antibody that contained the variable heavy chain sequence and the variable light chain sequence of anti-CD33 antibody 6C7. Monocytes were isolated from blood from healthy human donors using the RosetteSep™ monocyte isolation antibody cocktail (StemCell Technologies). The isolated monocytes were differentiated into dendritic cells with 100 ng/mL GM-CSF and 100 ng/mL IL-4 (Peprotech). Dendritic cells were incubated with dilutions of the anti-CD33 antibodies for 30 minutes on ice in the dark, followed by a 30-minute incubation with a fluorescently-conjugated anti-human IgG secondary antibody. Cells were washed twice in FACS buffer (PBS+2% FBS, 2 mM EDTA), and flow cytometry was performed on a BD FACS Canto. Data were analyzed using FlowJo software (Ashland, OR).\nThe antibody variants were evaluated for binding to primary human dendritic cells, according to the method described in Example 1, at an antibody concentration of 2 μg/mL."}, "[10]": {"biological_target": "T1, human CD33 on primary human dendritic …", "assay": "flow cytometry, primary human dendritic cells, 2 ug/mL"}, "[11]": {"biological_target": "T3, recombinant cynomolgus CD33 protein …", "assay": "BLI (ForteBio)", "description": "(§1) Affinity parameters of the antibody variants for human CD33 were measured by BioLayer Interferometry in a ForteBio assay according to standard techniques (Estep et al. (2013) MAbs 5(2): 270-8) and were compared to those of the parental antibody (antibody 6C7H8) and the parental humanized antibody (antibody 6C71H5). Briefly, the antibodies were captured on anti-human Fc Biosensors (Pall ForteBio). Recombinant human CD33 (10 nM, Sino Biologicals) was then bound to the captured anti-CD33 surface (200 s association time, 1200 s dissociation time). Local fitting was used to extract association and dissociation rate constants (kₐ and kd, respectively) for each antibody. Apparent affinity constants (KD) were calculated from the ratio kd/kₐ.\n(§2) The affinity parameters of anti-CD33 antibody 6C7H54 for human CD33 and cynomolgus CD33 were measured by BioLayer Interferometry in a ForteBio assay, according to the method described above."}, "[12]": {"biological_target": "T2, recombinant human CD33 protein (Sino …)", "assay": "BLI (ForteBio), antibody on anti-human Fc sensor", "description": "as §1, §2"}, "[13]": {"biological_target": "T3, recombinant cynomolgus CD33 protein …", "assay": "BLI (ForteBio), antibody on anti-human Fc sensor", "description": "as §1, §2"}}, "note": "Where a chain is given by its changes, count along the chain named. Read-outs that look alike come from different tables or passages of the source.", "data": [{"binder": "B1", "values": [{"measurement": "Receptor downregulation, (EC50) (pM)", "setting": "[1]", "value": 42.4, "unit": "pM"}, {"measurement": "Maximal reduction in CD33 (% remaining)", "setting": "[2]", "value": 21, "unit": "% remaining"}, {"measurement": "Receptor downregulation, (EC50) (pM)", "setting": "[2]", "value": 42.4, "unit": "pM"}, {"measurement": "Receptor downregulation, (EC50) (pM)", "setting": "[3]", "value": 42.4, "unit": "pM"}, {"measurement": "EC50", "setting": "[4]", "value": 0.16, "unit": "nM"}, {"measurement": "EC50", "setting": "[5]", "value": 3.84, "unit": "nM"}, {"measurement": "Relative maximal binding (cyno/human)", "setting": "[5]", "value": 0.5}, {"measurement": "Relative potency (human/cyno)", "setting": "[5]", "value": 0.04}, {"measurement": "Kd", "setting": "[6]", "value": 0.436, "unit": "nM"}, {"measurement": "koff", "setting": "[6]", "value": 0.00012, "unit": "s⁻¹"}, {"measurement": "kon", "setting": "[6]", "value": 275000, "unit": "M⁻¹ s⁻¹"}]}, {"binder": "B2", "values": [{"measurement": "Receptor downregulation, (EC50) (pM)", "setting": "[1]", "value": 77.9, "unit": "pM"}, {"measurement": "Fold increase in potency compared to 6C7H5", "setting": "[2]", "value": 0.5, "unit": "fold"}, {"measurement": "Maximal reduction in CD33 (% remaining)", "setting": "[2]", "value": 21.5, "unit": "% remaining"}, {"measurement": "Receptor downregulation, (EC50) (pM)", "setting": "[2]", "value": 77.9, "unit": "pM"}, {"measurement": "Maximal downregulation (% CD33 remaining)", "setting": "[7]", "value": 21.5, "unit": "% CD33 remaining"}, {"measurement": "Receptor downregulation, (pM, EC50)", "setting": "[7]", "value": 77.9, "unit": "pM"}, {"measurement": "EC50", "setting": "[4]", "value": 0.21, "unit": "nM"}, {"measurement": "Relative maximal binding (cyno/human)", "setting": "[5]", "value": 0.06}, {"measurement": "Kd", "setting": "[6]", "value": 0.722, "unit": "nM"}, {"measurement": "koff", "setting": "[6]", "value": 0.000413, "unit": "s⁻¹"}, {"measurement": "kon", "setting": "[6]", "value": 572000, "unit": "M⁻¹ s⁻¹"}]}, {"binder": "B3", "values": [{"measurement": "binding result", "setting": "[8]", "value": "binds"}, {"measurement": "binding result", "setting": "[9]", "value": "binds"}]}, {"binder": "B4", "values": [{"measurement": "Fold increase in potency compared to 6C7H5", "setting": "[2]", "value": 0.01, "unit": "fold"}, {"measurement": "Receptor downregulation, (EC50) (pM)", "setting": "[2]", "value": 3640, "unit": "pM"}, {"measurement": "binding relative to the parental antibodies", "setting": "[10]", "value": "< 60", "unit": "%"}, {"measurement": "Kd", "setting": "[6]", "value": 3.88, "unit": "nM"}, {"measurement": "koff", "setting": "[6]", "value": 0.0031, "unit": "s⁻¹"}, {"measurement": "kon", "setting": "[6]", "value": 801000, "unit": "M⁻¹ s⁻¹"}]}, {"binder": "B5", "values": [{"measurement": "Fold increase in potency compared to 6C7H5", "setting": "[2]", "value": 0.03, "unit": "fold"}, {"measurement": "Receptor downregulation, (EC50) (pM)", "setting": "[2]", "value": 1230, "unit": "pM"}, {"measurement": "binding relative to the parental antibodies", "setting": "[10]", "value": "< 60", "unit": "%"}, {"measurement": "Kd", "setting": "[6]", "value": 0.467, "unit": "nM"}, {"measurement": "koff", "setting": "[6]", "value": 0.00113, "unit": "s⁻¹"}, {"measurement": "kon", "setting": "[6]", "value": "2.41e+06", "unit": "M⁻¹ s⁻¹"}]}, {"binder": "B6", "values": [{"measurement": "Fold increase in potency compared to 6C7H5", "setting": "[2]", "value": 0.03, "unit": "fold"}, {"measurement": "Receptor downregulation, (EC50) (pM)", "setting": "[2]", "value": 1520, "unit": "pM"}, {"measurement": "binding relative to the parental antibodies", "setting": "[10]", "value": "< 60", "unit": "%"}, {"measurement": "Kd", "setting": "[6]", "value": 2.73, "unit": "nM"}, {"measurement": "koff", "setting": "[6]", "value": 0.00365, "unit": "s⁻¹"}, {"measurement": "kon", "setting": "[6]", "value": "1.34e+06", "unit": "M⁻¹ s⁻¹"}]}, {"binder": "B7", "values": [{"measurement": "fold difference of binding affinity, cynomolgus CD33 against human CD33", "setting": "[11]", "value": "≤ 3", "unit": "fold"}, {"measurement": "Fold increase in potency compared to 6C7H5", "setting": "[3]", "value": 1.2, "unit": "fold"}, {"measurement": "Receptor downregulation, (EC50) (pM)", "setting": "[3]", "value": 30.2, "unit": "pM"}, {"measurement": "Maximal downregulation (% CD33 remaining)", "setting": "[7]", "value": 26.1, "unit": "% CD33 remaining"}, {"measurement": "Receptor downregulation, (pM, EC50)", "setting": "[7]", "value": 30.2, "unit": "pM"}, {"measurement": "EC50", "setting": "[4]", "value": 0.28, "unit": "nM"}, {"measurement": "EC50", "setting": "[5]", "value": 0.57, "unit": "nM"}, {"measurement": "Relative maximal binding (cyno/human)", "setting": "[5]", "value": 0.73}, {"measurement": "Relative potency (human/cyno)", "setting": "[5]", "value": 0.49}, {"measurement": "Kd", "setting": "[12]", "value": 0.061, "unit": "nM"}, {"measurement": "koff", "setting": "[12]", "value": "3.32e-05", "unit": "s⁻¹"}, {"measurement": "kon", "setting": "[12]", "value": 545000, "unit": "M⁻¹ s⁻¹"}, {"measurement": "Kd", "setting": "[13]", "value": 0.178, "unit": "nM"}, {"measurement": "koff", "setting": "[13]", "value": 0.000105, "unit": "s⁻¹"}, {"measurement": "kon", "setting": "[13]", "value": 589000, "unit": "M⁻¹ s⁻¹"}]}]}
